This passage reports EC50 (read off the curve) and EC50 results from patent publication US20190194350A1.

Experiment [1] has as its target His-tagged extracellular domain of EGFR (aa 20-643) (UniProt P00533). Kind of experiment: ELISA, coated EGFR-His, detection with HRP anti-human Fc antibody; the legend paragraph 41 and paragraph 295 name Cetuximab as this control, the sheet prints hu225-IgG [panel EGFR-His]. (In an ELISA, binding on a coated surface is turned into a signal by an enzyme label.)
Experiment [2] has the same target. Kind of experiment: ELISA, coated EGFR-His.

B1: hu225-IgG (antibody, V domains shown)
VH: EVQLVESGGGLVQPGGSLRLSCAASGFSLTNYGVHWVRQAPGKGLEWLGVIWSGGNTDYNTPFTSRFTISRDNSKNTLYLQMNSLRAEDTAVYYCARALTYYDYEFAYWGQGTTVTVSS
VL: DIQLTQSPSFLSASVGDRVTITCRASQSIGTNIHWYQQKPGKAPKLLIKYASESISGVPSRFSGSGSGTEFTLTISSLQPEDFATYYCQQNNNWPTTFGAGTKLEIK
Usually EC50 (read off the curve) stands for the concentration giving half of the maximal effect. Low values mean an effect from little substance, high ones a need for much substance. A word on the EC50: it is the concentration needed to bring the measured effect to its halfway point. With B1, the EC50 (read off the curve) in experiment [1] worked out at 0.2 nM. This molecule had a concentration for a half-maximal effect (EC50) in experiment [2] of 0.2 nM.
